Measurements published in PMC10883916, “Cbp1 and Cren7 form chromatin-like structures that ensure efficient transcription of long CRISPR arrays”.

What was measured:
Cbp1;Cren7 [1] = target: T1, Cbp1;Cren7 (Saccharolobus (Sulfolobus) solfataricus …, UniProt Q97ZW9;Q97ZE3 1-150;1-60, |); assay: EMSA; 12.5 nM Cbp1, 12.5-25 nM Cren7; two Cren7 recruited; EMSA: 800 pM DNA, 10 mM MOPS pH 6.5, 100 mM KCl, 10 mM MgCl2, 2 µg BSA, 10% glycerol, 5 mM DTT, 75 °C 5 min; long templates: 10 mM MOPS pH 6.5, 10 mM MgCl2, 105 mM KCl, 10% glycerol, 10 mM DTT, 5 µg/ml heparin, 2 mM spermidine, 65 °C; conditions: protein: recombinant;recombinant; tags: ;; copies: 1;2; label: 5'-32P; blunt
T1 sequence 1: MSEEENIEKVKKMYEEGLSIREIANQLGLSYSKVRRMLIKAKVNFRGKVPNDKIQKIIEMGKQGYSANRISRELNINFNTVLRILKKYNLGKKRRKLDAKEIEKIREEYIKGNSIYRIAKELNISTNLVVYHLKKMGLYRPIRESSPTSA
T1 sequence 2: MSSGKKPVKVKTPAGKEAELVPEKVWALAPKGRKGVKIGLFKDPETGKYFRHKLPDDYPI

Cbp1 [2] = target: T2, Cbp1 (Saccharolobus (Sulfolobus) solfataricus …, UniProt Q97ZW9 1-150); assay: EMSA; WT reference; EMSA: 800 pM DNA, 10 mM MOPS pH 6.5, 100 mM KCl, 10 mM MgCl2, 2 µg BSA, 10% glycerol, 5 mM DTT, 75 °C 5 min; long templates: 10 mM MOPS pH 6.5, 10 mM MgCl2, 105 mM KCl, 10% glycerol, 10 mM DTT, 5 µg/ml heparin, 2 mM spermidine, 65 °C; conditions: protein: recombinant; label: 5'-32P; blunt
T2 sequence: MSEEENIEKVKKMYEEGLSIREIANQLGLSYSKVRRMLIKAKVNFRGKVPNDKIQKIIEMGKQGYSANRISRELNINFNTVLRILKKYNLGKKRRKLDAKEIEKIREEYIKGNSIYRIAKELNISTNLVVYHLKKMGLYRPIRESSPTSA

Cbp1 ΔHTH3 = target: T3, Cbp1 ΔHTH3 (S. solfataricus P2, UniProt Q97ZW9 1-87+136-150, internal_change); assay: EMSA; 80 nM; no apparent effect of mutation; EMSA: 800 pM DNA, 10 mM MOPS pH 6.5, 100 mM KCl, 10 mM MgCl2, 2 µg BSA, 10% glycerol, 5 mM DTT, 75 °C 5 min; long templates: 10 mM MOPS pH 6.5, 10 mM MgCl2, 105 mM KCl, 10% glycerol, 10 mM DTT, 5 µg/ml heparin, 2 mM spermidine, 65 °C; conditions: protein: recombinant; label: 5'-32P; blunt
T3 sequence: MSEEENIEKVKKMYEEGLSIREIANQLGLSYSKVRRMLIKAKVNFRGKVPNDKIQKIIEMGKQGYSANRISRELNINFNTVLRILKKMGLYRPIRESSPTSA

Cbp1 ΔHTH1 = target: T4, Cbp1 ΔHTH1 (S. solfataricus P2, UniProt Q97ZW9 1-1+51-150, internal_change); assay: EMSA; 160 nM; unaffected by mutation vs ΔHTH1 on WT repeat; EMSA: 800 pM DNA, 10 mM MOPS pH 6.5, 100 mM KCl, 10 mM MgCl2, 2 µg BSA, 10% glycerol, 5 mM DTT, 75 °C 5 min; long templates: 10 mM MOPS pH 6.5, 10 mM MgCl2, 105 mM KCl, 10% glycerol, 10 mM DTT, 5 µg/ml heparin, 2 mM spermidine, 65 °C; conditions: protein: recombinant; label: 5'-32P; blunt
T4 sequence: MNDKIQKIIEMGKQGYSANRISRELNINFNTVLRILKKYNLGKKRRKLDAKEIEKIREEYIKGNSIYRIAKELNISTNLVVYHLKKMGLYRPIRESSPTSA

Cbp1 [3] = target: T2, Cbp1; assay: EMSA; not reduced vs WT repeat; EMSA: 800 pM DNA, 10 mM MOPS pH 6.5, 100 mM KCl, 10 mM MgCl2, 2 µg BSA, 10% glycerol, 5 mM DTT, 75 °C 5 min; long templates: 10 mM MOPS pH 6.5, 10 mM MgCl2, 105 mM KCl, 10% glycerol, 10 mM DTT, 5 µg/ml heparin, 2 mM spermidine, 65 °C; conditions: protein: recombinant; label: 5'-32P; blunt
Cbp1;Cren7 [4] = target: T1, Cbp1;Cren7; assay: EMSA; 12.5 nM Cbp1, 3.125-25 nM Cren7; second Cren7 at higher concentration; EMSA: 800 pM DNA, 10 mM MOPS pH 6.5, 100 mM KCl, 10 mM MgCl2, 2 µg BSA, 10% glycerol, 5 mM DTT, 75 °C 5 min; long templates: 10 mM MOPS pH 6.5, 10 mM MgCl2, 105 mM KCl, 10% glycerol, 10 mM DTT, 5 µg/ml heparin, 2 mM spermidine, 65 °C; conditions: protein: recombinant;recombinant; tags: ;; copies: 1;2; label: 5'-32P; blunt
Cbp1;Cren7 [5] = target: T1, Cbp1;Cren7; assay: EMSA; 12.5 nM Cbp1, 3.125-25 nM Cren7; weaker Cren7 affinity than CRISPR A; EMSA: 800 pM DNA, 10 mM MOPS pH 6.5, 100 mM KCl, 10 mM MgCl2, 2 µg BSA, 10% glycerol, 5 mM DTT, 75 °C 5 min; long templates: 10 mM MOPS pH 6.5, 10 mM MgCl2, 105 mM KCl, 10% glycerol, 10 mM DTT, 5 µg/ml heparin, 2 mM spermidine, 65 °C; conditions: protein: recombinant;recombinant; tags: ;; copies: 1;2; label: 5'-32P; blunt
Cbp1 [6] = target: T2, Cbp1; assay: EMSA; 12.5 nM Cbp1; stronger than CRISPR A; EMSA: 800 pM DNA, 10 mM MOPS pH 6.5, 100 mM KCl, 10 mM MgCl2, 2 µg BSA, 10% glycerol, 5 mM DTT, 75 °C 5 min; long templates: 10 mM MOPS pH 6.5, 10 mM MgCl2, 105 mM KCl, 10% glycerol, 10 mM DTT, 5 µg/ml heparin, 2 mM spermidine, 65 °C; conditions: protein: recombinant; label: 5'-32P; blunt
Cbp1;Cren7 [7] = target: T1, Cbp1;Cren7; assay: EMSA; 12.5 nM Cbp1, 3.125-25 nM Cren7; EMSA: 800 pM DNA, 10 mM MOPS pH 6.5, 100 mM KCl, 10 mM MgCl2, 2 µg BSA, 10% glycerol, 5 mM DTT, 75 °C 5 min; long templates: 10 mM MOPS pH 6.5, 10 mM MgCl2, 105 mM KCl, 10% glycerol, 10 mM DTT, 5 µg/ml heparin, 2 mM spermidine, 65 °C; conditions: protein: recombinant;recombinant; tags: ;; copies: 1;2; label: 5'-32P; blunt

B1: CRISPR A repeat 1, 20 bp downstream (dsDNA)
DNA 1: GGAAGTATAAAAACACAACAGATTAATCCCAAAAGGAATTGAAAGGAACTAGCTTATAGTTTAGA
DNA 2: TCTAAACTATAAGCTAGTTCCTTTCAATTCCTTTTGGGATTAATCTGTTGTGTTTTTATACTTCC
Question: Does B1 bind (Cbp1;Cren7 [1])?
Answer: binds

B2: CRISPR A repeat 1, 5 bp flanks (WT) (dsDNA)
DNA 1: CAACAGATTAATCCCAAAAGGAATTGAAAGGAACT
DNA 2: AGTTCCTTTCAATTCCTTTTGGGATTAATCTGTTG
Question: Does B2 bind (Cbp1 [2])?
Answer: binds

B3: CRISPR A repeat 1 T19G/T20G (dsDNA)
DNA 1: CAACAGATTAATCCCAAAAGGAAGGGAAAGGAACT
DNA 2: AGTTCCTTTCCCTTCCTTTTGGGATTAATCTGTTG
Question: Does B3 bind (Cbp1 ΔHTH3)?
Answer: binds

B4: CRISPR A repeat 1 A6C/T7G (dsDNA)
DNA 1: CAACAGATTACGCCCAAAAGGAATTGAAAGGAACT
DNA 2: AGTTCCTTTCAATTCCTTTTGGGCGTAATCTGTTG
Question: Does B4 bind (Cbp1 ΔHTH1)?
Answer: binds

B5: CRISPR A repeat 1 A13C/A14C (A13C/T14G in text) (dsDNA)
DNA 1: CAACAGATTAATCCCAACCGGAATTGAAAGGAACT
DNA 2: AGTTCCTTTCAATTCCGGTTGGGATTAATCTGTTG
Question: Does B5 bind (Cbp1 [3])?
Answer: binds

B6: CRISPR A repeat 1 A22C/A23C (dsDNA)
DNA 1: CAACAGATTAATCCCAAAAGGAATTGCCAGGAACT
DNA 2: AGTTCCTGGCAATTCCTTTTGGGATTAATCTGTTG
Question: Does B6 bind (Cbp1 ΔHTH3)?
Answer: binds

B7: CRISPR A repeat, 20 bp flanks (Fig. 1e) (dsDNA)
DNA 1: CATCTTCTCTCATCACCTTCGATTAATCCCAAAAGGAATTGAAAGAATGTATAAAGGTAACCAGG
DNA 2: CCTGGTTACCTTTATACATTCTTTCAATTCCTTTTGGGATTAATCGAAGGTGATGAGAGAAGATG
Question: Does B7 bind (Cbp1;Cren7 [4])?
Answer: binds

B8: CRISPR F repeat, 20 bp flanks (dsDNA)
DNA 1: AAAATTATTGACAAAAATAGGCTAATCTACTATAGAATTGAAAGCTACACCGATTCCGATACCC
DNA 2: GGGTATCGGAATCGGTGTAGCTTTCAATTCTATAGTAGATTAGCCTATTTTTGTCAATAATTTT
Question: Does B8 bind (Cbp1;Cren7 [5])?
Answer: binds

Question: Does B8 bind (Cbp1 [6])?
Answer: binds

B9: CRISPR D repeat, 20 bp flanks (dsDNA)
DNA 1: AACTAACAAATATACGCCTTGATAATCTCTTATAGAATTGAAAGTCAATTTGTGAAACTTGTCC
DNA 2: GGACAAGTTTCACAAATTGACTTTCAATTCTATAAGAGATTATCAAGGCGTATATTTGTTAGTT
Question: Does B9 bind (Cbp1;Cren7 [5])?
Answer: binds

B10: CRISPR A repeat 1, 2 bp downstream (dsDNA)
DNA 1: GGAAGTATAAAAACACAACAGATTAATCCCAAAAGGAATTGAAAGGA
DNA 2: TCCTTTCAATTCCTTTTGGGATTAATCTGTTGTGTTTTTATACTTCC
Question: Does B10 bind (Cbp1;Cren7 [1])?
Answer: binds

B11: ISC1229 non-canonical Cbp1 binding site (dsDNA)
DNA 1: AACTTCAAGCATAGTGTCAACTAAGATTGCCACGTGAATTGAAAGGATTCACGTGGCGATTTTGG
DNA 2: CCAAAATCGCCACGTGAATCCTTTCAATTCACGTGGCAATCTTAGTTGACACTATGCTTGAAGTT
Question: Does B11 bind (Cbp1;Cren7 [7])?
Answer: binds
